Our source for the fold reduction of binding affinity against 2-15 IgG and pseudovirus neutralization potency, fold reduction against 2-15 IgG values is article PMC7972811.

For experiment [1], the target named is SARS-CoV-2 spike S2P (ectodomain of the SARS-CoV-2 S trimer) (SARS-CoV-2, ancestral (P0DTC2 sequence)). Kind of experiment: SPR. (In SPR one partner is held on a chip, and binding of the other changes the refractive index at the surface.)
For experiment [2] the target is unchanged.

Consider “2-15 IgG with the paratope somatic hypermutation Y32F (light chain) reverted to germline (antibody)”, for which, in experiment [1], the fold reduction of binding affinity against 2-15 IgG was found to be 12 fold. For the same substance, in experiment [2], the pseudovirus neutralization potency, fold reduction against 2-15 IgG came out at 42 fold.
